Residue numbers refer to the chain shown, from its start. Names and notes keep the numbering of the source.

For experiment [1], the target named is T1, human TNFR1 on Kym-1, HeLa and HT1080 cells (human, UniProt P19438 30-455).
T1 sequence (looked up): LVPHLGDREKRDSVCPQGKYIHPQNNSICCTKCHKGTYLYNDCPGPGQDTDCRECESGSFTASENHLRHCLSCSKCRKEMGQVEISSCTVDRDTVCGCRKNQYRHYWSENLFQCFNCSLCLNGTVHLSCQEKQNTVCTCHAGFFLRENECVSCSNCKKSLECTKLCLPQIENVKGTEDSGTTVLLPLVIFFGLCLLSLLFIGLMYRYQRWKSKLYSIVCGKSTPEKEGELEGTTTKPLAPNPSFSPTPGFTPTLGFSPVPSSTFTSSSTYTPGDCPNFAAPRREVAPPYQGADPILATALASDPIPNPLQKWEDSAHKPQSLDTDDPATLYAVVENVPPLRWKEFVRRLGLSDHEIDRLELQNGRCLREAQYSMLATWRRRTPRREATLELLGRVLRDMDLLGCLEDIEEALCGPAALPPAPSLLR
The experiment is described as follows: cell-based or functional assay.

Another experiment deals with T2, human TNFR1-Fc (human, UniProt P19438 29-211).
T2 construct: range 29-211; also called huTNFR1-Fc; recombinant human TNFR1-Fc fusion protein; not shown: human IgG1 Fc region (vector pSecTagL1-Fc)
T2 sequence (looked up): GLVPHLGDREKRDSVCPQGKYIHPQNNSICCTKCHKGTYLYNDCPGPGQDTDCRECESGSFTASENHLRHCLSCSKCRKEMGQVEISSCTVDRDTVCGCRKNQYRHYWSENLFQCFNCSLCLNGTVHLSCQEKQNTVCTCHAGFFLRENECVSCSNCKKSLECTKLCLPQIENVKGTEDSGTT
The experiment is described as follows: quartz crystal microbalance, TNFR1-Fc immobilized. The protocol: (§1) Affinities of the antibodies were determined by quartz crystal microbalance measurements (QCM; Attana A-100 C-Fast system, Stockholm, Sweden). Binding experiments were performed in PBS 0.005% Tween 20 at a flow rate of 25 to 35 μl/min and temperature was controlled at 20° C. The TNFR1-Fc fusion proteins were chemically immobilized on an Attana carboxyl sensor chip by amine coupling at a concentration of 50 μg/ml according to the manufacturer's protocol resulting in a signal increase (frequency shift) of approximately 200 Hz. Antibodies were analyzed at concentration between 62.5 and 3.9 nM (4 measurements per concentration). The chip was regenerated with 10 mM glycine-HCl, pH 3.0. Buffer injections were performed prior to each sample injection to use as a reference in Attester Evaluation. Data were collected by Attester 3.0 (Version 3.1.1.8, Attana, Stockholm, Sweden) and analyzed by ClampXP (Myszka and Morton 1998). A mass transport model (Myszka 1997) was fitted to the data.

A further experiment addresses T3, rhesus TNFR1-Fc (rhesus; human, UniProt A0A1D5QSM0 27-209).
T3 construct: range 27-209; also called rheTNFR1-Fc; not shown: Fc of vector pSecTagL1-Fc (human IgG1 Fc is stated for the human TNFR1-Fc)
T3 sequence: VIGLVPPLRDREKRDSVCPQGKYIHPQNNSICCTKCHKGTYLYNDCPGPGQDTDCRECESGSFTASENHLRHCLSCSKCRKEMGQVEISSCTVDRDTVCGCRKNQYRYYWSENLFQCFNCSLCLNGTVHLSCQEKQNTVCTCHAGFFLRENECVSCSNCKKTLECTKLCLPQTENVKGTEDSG
The experiment is described as follows: quartz crystal microbalance, TNFR1-Fc immobilized. Here is the method:
as §1

For experiment [2], the target named is T4, human TNFR1-Fas on transfected mouse embryonic fibroblasts (human, UniProt P19438 30-211; P25445 191-335, limits assumed).
T4 construct: extracellular domain;domain: intracellular domain; also called MEF-TNFR1-Fas
T4 sequence (looked up): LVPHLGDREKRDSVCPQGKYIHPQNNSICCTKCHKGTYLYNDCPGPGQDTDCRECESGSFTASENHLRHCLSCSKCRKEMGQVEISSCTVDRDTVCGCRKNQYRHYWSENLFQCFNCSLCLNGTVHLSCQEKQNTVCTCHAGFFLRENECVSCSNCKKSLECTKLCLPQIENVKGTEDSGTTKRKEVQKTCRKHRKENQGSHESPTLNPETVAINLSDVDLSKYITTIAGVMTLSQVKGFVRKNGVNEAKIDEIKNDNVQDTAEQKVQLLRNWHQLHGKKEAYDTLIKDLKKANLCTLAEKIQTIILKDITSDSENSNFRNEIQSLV
Nature of the experiment: flow cytometry, titration on MEF-TNFR1-Fas cells. Here is the method:
(§2) Binding to TNFR1-Fas or TNFR2-Fas transfected MEF cells was analyzed by flow cytometry. Cells (2×105) were incubated with dilution series of antibodies for 4 h at 4° C. Cells were then washed with PBS and bound antibodies were detected with PE-labeled goat anti-mouse or anti-human antibody. Cells were analyzed by flow cytometry (Cytomics FC 500, Beckmann-Coulter, Krefeld, Germany). Data were evaluated with the program WinMDI, version 2.9, and fitted with GraphPrism software (La Jolla, USA) from 3 independent binding curves.

In experiment [3] the target is T5, chimeric human/mouse TNFR1-Fc construct 8 (mouse TNFR1 with human CRD1 and sub-domain A1 of CRD2) (human; mouse, UniProt P25118 100-212, limits assumed).
T5 construct: The label hl-2A1/m2B2-4 is tied to construct 8 by inference; also called chimeric TNFR1 hl-2A1/m2B2-4; not shown: Fc of vector pSecTagL1-Fc
T5 sequence: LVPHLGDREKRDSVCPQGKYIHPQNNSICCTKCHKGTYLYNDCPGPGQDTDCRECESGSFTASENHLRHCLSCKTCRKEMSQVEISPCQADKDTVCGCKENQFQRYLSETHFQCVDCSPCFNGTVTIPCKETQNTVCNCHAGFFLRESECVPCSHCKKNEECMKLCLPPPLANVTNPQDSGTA
Nature of the experiment: ELISA on chimeric TNFR1-Fc, antibody 0.1 nM. Here is the method: (§3) Antibodies (0.1 nM) were analyzed by ELISA for binding to the TNFR1-Fc fusion proteins. […] Cysteine residues are marked with grey boxes and the 2 positions (P23, Q24) analyzed by site-directed mutagenesis are marked by asterisks.

Experiment [4] addresses T6, human TNFR2-Fas on transfected mouse embryonic fibroblasts (human, UniProt P20333 23-257; P25445 191-335, limits assumed).
T6 construct: extracellular domain;domain: intracellular domain; also called MEF-TNFR2-Fas
T6 sequence (looked up): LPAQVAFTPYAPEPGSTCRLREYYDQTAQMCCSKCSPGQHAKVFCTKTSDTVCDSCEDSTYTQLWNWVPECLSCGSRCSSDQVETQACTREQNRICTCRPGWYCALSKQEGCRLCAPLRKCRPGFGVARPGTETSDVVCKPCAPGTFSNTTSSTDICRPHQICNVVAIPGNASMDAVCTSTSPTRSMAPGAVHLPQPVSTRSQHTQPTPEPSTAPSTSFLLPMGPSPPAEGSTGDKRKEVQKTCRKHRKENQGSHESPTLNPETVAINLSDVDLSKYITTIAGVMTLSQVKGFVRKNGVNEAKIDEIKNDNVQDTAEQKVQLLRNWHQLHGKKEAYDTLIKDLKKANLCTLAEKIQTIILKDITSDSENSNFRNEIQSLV
Nature of the experiment: flow cytometry on transfected MEF cells. Here is the method:
as §2

Another experiment addresses T7, mouse TNFR1-Fc (mouse; human, UniProt P25118 30-212).
T7 construct: range 30-212; also called moTNFR1-Fc; not shown: Fc of vector pSecTagL1-Fc (human IgG1 Fc is stated for the human TNFR1-Fc)
T7 sequence (looked up): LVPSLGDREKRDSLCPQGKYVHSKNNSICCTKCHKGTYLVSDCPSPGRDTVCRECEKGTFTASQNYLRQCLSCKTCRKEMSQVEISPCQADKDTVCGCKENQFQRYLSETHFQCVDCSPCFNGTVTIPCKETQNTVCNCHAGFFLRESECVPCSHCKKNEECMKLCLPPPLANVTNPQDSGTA
Nature of the experiment: ELISA on coated TNFR1-Fc (100 ng/well). The protocol:
(100 ng/well). Binding was detected by HRP-conjugated anti-molgG (Fc-specific) antibody or anti-human Fab antibody, respectively. Binding of an anti-human Fc antibody (anti-Fc) was included as coating control.

The target in experiment [5] is T8, chimeric human/mouse TNFR1-Fc construct 3 (human CRD1 and 2 substituted by the mouse domains) (mouse; human, UniProt P25118 30-125; P19438 126-211, limits assumed).
T8 construct: not shown: Fc of vector pSecTagL1-Fc
T8 sequence (looked up): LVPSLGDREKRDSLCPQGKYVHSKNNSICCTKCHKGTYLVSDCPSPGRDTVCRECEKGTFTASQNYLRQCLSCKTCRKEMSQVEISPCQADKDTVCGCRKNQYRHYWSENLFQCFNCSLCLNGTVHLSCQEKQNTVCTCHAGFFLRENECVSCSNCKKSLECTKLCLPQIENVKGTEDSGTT
The experiment is described as follows: ELISA on chimeric TNFR1-Fc. The protocol: as §3

For experiment [6], the target named is T9, chimeric human/mouse TNFR1-Fc construct 4 (human CRD1 substituted by the mouse domain) (mouse; human, UniProt P25118 30-82; P19438 83-211, limits assumed).
T9 construct: not shown: Fc of vector pSecTagL1-Fc
T9 sequence (looked up): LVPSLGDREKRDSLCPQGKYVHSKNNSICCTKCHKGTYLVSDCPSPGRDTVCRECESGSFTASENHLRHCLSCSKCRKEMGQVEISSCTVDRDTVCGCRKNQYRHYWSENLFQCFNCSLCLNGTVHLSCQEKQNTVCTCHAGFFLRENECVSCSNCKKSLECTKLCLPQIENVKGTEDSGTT
Nature of the experiment: ELISA on chimeric TNFR1-Fc. Here is the method: as §3

In experiment [7] the target is T10, chimeric human/mouse TNFR1-Fc construct 5 (A1 domain of CRD1 of human TNFR1 exchanged with the mouse sequence) (mouse; human, UniProt P25118 30-58; P19438 59-211, limits assumed).
T10 construct: not shown: Fc of vector pSecTagL1-Fc
T10 sequence (looked up): T9 sequence (looked up) with V40Y, S41N, S45G, R48Q, V51D
Nature of the experiment: ELISA on chimeric TNFR1-Fc. The protocol:
as §3

B1: H398 (antibody, V domains shown)
VH: QVQLQESGAELARPGASVKLSCKASGYTFTDFYINWVKQRTGQGLEWIGEIYPYSGHAYYNEKFKAKATLTADKSSSTAFMQLNSLTSEDSAVYFCVRWDFLDYWGQGTTLTVSS
VL: DIVMTQSPLSLPVSLGDQASISCRSSQSLLHSNGNTYLHWYVQKPGQSPKLLIYTVSNRFSGVPDRFSGSGSGTDFTLKISRVEAEDLGVYFCSQSTHVPYTFGGGTKLEIK
For the molecule B1, in experiment [1], the “IC50, inhibition of TNF-induced IL-6 release from HeLa cells” value was found to be 6 nM and the “IC50, inhibition of TNF-induced IL-8 release from HT1080 cells” value was 6 nM. Also, in the experiment with human TNFR1-Fc, the Kd came to 0.23 nM, the off-rate constant (koff) came to 7e-05 s⁻¹ and the kon is 310000 M⁻¹ s⁻¹. In the experiment with rhesus TNFR1-Fc, this molecule displayed a Kd of 0.49 nM, a koff of 0.0001 s⁻¹ and a kon of 210000 M⁻¹ s⁻¹. The molecule further had an EC50 in experiment [2] of about 0.1 nM.

B2: ATROSAB (antibody, human IgG1, kappa, V domains shown)
VH: QVQLVQSGAEVKKPGSSVKVSCKASGYTFTDFYINWVRQAPGQGLEWIGEIYPYSGHAYYNEKFKARVTITADKSTSTAYMELSSLRSEDTAVYYCARWDFLDYWGQGTTVTVSS
VL: DIVMTQSPLSLPVTPGEPASISCRSSQSLLHSNGNTYLHWYLQKPGQSPQLLIYTVSNRFSGVPDRFSGSGSGTDFTLKISRVEAEDVGVYYCSQSTHVPYTFGGGTKVEIKR
notes: Humanized full-length human IgG1 made in CHO cells; Effector-deficient Fc (IgG1e3: E233P/L234V/L235A/deltaG236, A327G/A330S/P331S), allotype G1m-1,17; also called IZI-06.1 IgG; humanized H398 IgG1
B2: the binding result was “binds” in [3]; “no binding” in experiment [4]; “no binding (tested: 5 ug/ml)” in the experiment with mouse TNFR1-Fc; “no binding (tested: 0.1 nM)” in [5]; “no binding (tested: 0.1 nM)” in experiment [6]; “no binding (tested: 0.1 nM)” in [7]. Besides, in experiment [1], the “IC50, inhibition of TNF-induced IL-6 release from HeLa cells” value came to 60 nM. Further, the “IC50, inhibition of TNF-induced IL-8 release from HT1080 cells” value in [1] turned out to be 60 nM. Moreover, the values for the Kd in the experiment with human TNFR1-Fc and with rhesus TNFR1-Fc were 0.35 nM and 0.1 nM, respectively. For the same molecule, the off-rate constant (koff) with human TNFR1-Fc stood at 0.00013 s⁻¹; in the experiment with rhesus TNFR1-Fc, 6.7e-05 s⁻¹. Besides, the kon with human TNFR1-Fc turned out to be 380000 M⁻¹ s⁻¹; in the experiment with rhesus TNFR1-Fc, 690000 M⁻¹ s⁻¹. Besides, in [2], the EC50 was about 0.1 nM.

(Values after patent US20130251707A1 (BALIOPHARM, published 2013).)
